# Source: article PMC10019796
# Molecular target: mtDsbC-SARS-CoV-2 RBD wild type fusion protein (SARS-CoV-2) (UniProt P0DTC2)
# Assay: BLI; biotinylated mtDsbC-RBD (20 µg/mL) immobilised on streptavidin (SA) biosensors, Fabs as analytes at three nanomolar concentrations; Octet RED384, 30 °C, 1000 rpm, 1 × PBS Kinetics Buffer; 1:1 interaction model, global fit
substance,measurement,value
REGN10987 (L93Q) Fab,Kd,> 1 µM
